The DeepSol protein solubility set

Assay: soluble on expression in E. coli; label from the status in PepcDB or PDB records

Sequence	soluble on expression in E. coli
GPGSMPWEVKADNAYGIDYNKLIDKFGCKLITKDMIERMERLTGQKAHHFFRRNIFLSHRDFEKILDVYEKGELFYLYTGRGPSSESLHVGHLVPFLFTKYLQDTFKVPLVIQLTDDEKFIFKSNLTLEETHNYAYENMKDIIACGFDPELTFIFTNLEYIAELYPDILRIEKKISCSQIKSIFGFKDSCNVGKFAFPAVQAAPAFSSSFPHIFGGRTDIHCLVPHAIDQDPYFRMVRDVAPRLGYLKPSSIHSIFLPSLQGSQTKMSASVQNSSIFVNDNEESIRNKIMKYAFSGGQATEEEQRRLGANLDVDVSWQYLRFLMEDDEKLEEIGKKYSSGEMLSGEIKSILVQELVKLTKNHQKNREAINDDVIAKFTNKSREQLLKLFINKK	soluble
GPGSMQAPSEDDVARKEALKRRVEEHMLWKMTFFQSRPPPPFIPKCRRRPEPIANAPVHSFYKRALEIVSAEKEHMSSFCSSASPPTMTKTEPPEGDGAKSKQDVWKHKMMLEMERRNPYTDINIRTDPRSTVVVSSLHPKSLEEDIRLFGEQFGRVVSVRLICDHNGKSRRYGFVQFGLEAEARKAVAHSRKRRLHGHAVVMEMERGRLDRDFLPKRLAEAKRQIEGSSSLCSDKRQRMEGSVKCPPAVAAGRSLPIPVSDTRDEVDAFLDDIMNLT	not soluble
GPGSMQKSKRHGMHMDFNPLEHCNAPMDSVVGYSSDVPSMSNCHRHWLSETYAYTTIGYPHEVMKKMPYGSEWKRAPTGLCWTADEFVARYLLHTRGIFVYFGGSRHDLYWENLKFFGSSGMHRLYERINFENKVEVTTTKRRKRHTPLVGDVVVWDSDYKAYFPRGHVAVVVKVEDDVSAAGGEAALRELKKERRQPSLVYIAEQNFDNKNWEGRNFSRVLKFTWMRGDRASLEDPDGPPLMGHVRVGKLLEDASFFGDL	not soluble
GPGSMQRLFFRSTCARVRCADLRLKPPVSIPQVTFQTVAFSSSAAGAAVRSGAEGTNTTTKRRSGFGGGAGGGGPVKDRYPPPATDLGDPRRRLAVLVDASSVDPRVFRNTILPAALKVGTPVLIRIFSVQLSSEWEPLVAGSGGTRESATSTEPEWKTSGTANDGREEVSGAAGSRDSGAWCPPVEFFRVERFIPVPMQMEADANHIFDFRKQNQIEAVAFVCGEVDRGVFEGFLPNIAGNGFNQYVLDELGMAKEVLEDGRSEDGTPTVQK	soluble
GPGSMRGVYPYLFAEDMRSRGAGEPAKKEVKKNKFVATINWELFTRVERMDVVFSPRPKGVTTGNEGDIADGCETGAPAVWSFVPVGVPHGENYRANAFLVPMHDKSESPRLLLYVSDISELEDRFFTDLARSKVLLGVDPAVPIEVLVLDMLSRRPYVAHLHVEASIAAAKRINAAKTYYVGMSHRINYDEMMQELQQLGLGATMEMGYDGCVVSVGDSGLQHLSGRL	not soluble
GPGSMRISERAFMDIAIGTKAPRRIVFKLFPRKCPSAVKNFIELCSGNVSTDTYESGNRDKLISESALPQLTYKNSTFHRVEKGYLIQGGDIVTGRGTEQLSIYGGTFSAPEEVRASVFDKPGLVGTASSSPNAHGSQFFILTAKEANHLNGTCICFGQVADGLDVVQEIEQVPIDPSGFPSLKVSIVDCGVLE	soluble
GPGSMRSASAYGLDGQARSLCSLYHPSLNSQECHRFLIGTANPSADNKIHLIEYQDDTKSLECATVWSHNDPVMGLWCSPSLSADSLLAVSSLRKLVVFQISENVLNEPKCIATMNKNYSRVLWDLDGLQREFRAVHQNTLTTVFLSSSKLGSETVNYTSSGGFIRCAALAPYDPNLCLISCDSDGLQLVDLRSKKASSFATTKYSHGFGYTTAVDFDRLKPGQFLSAGTDGYVYIHDIRYNTSCSLAILRHMKAHEHAVQSCSFNSFRDELVLSCSSDQTLKLWDVEHNNEPKCLRRLADYGDSVVALCWSGNSPWVFAGLSFNGKLLVDTVPNEKKMSILLDEKKWCET	not soluble
GPGSMSYYCSGGHCLKYATPGREPPDPQLFPHYMQNAQNLWLHFSEWWPHGDGGSCPAPPTKGVVFIVPGLGEHTGRYDSVALRLNQEGYVVFSMDNQGTGGSEGERLYVECFTHFVDDVCAFVVFIQTRYAALKSQPTFLMGHSMGGLIATLVAQRDASGFRGVVLSGPALGLSKPVPCFMRSLAHFLSQWFPKLPVRKLDPDLVSYNTPVVQLVKQDPFYSNVTLRARFVDEMLIAQDRAAEAAGTSQFPFLIVHGEEDQLCSLETSKSFFKSALSEDKNLVSYPRAGHEVLTELCRAEVMAEVIKFIDERAR	not soluble
GPGSMVHRQDGAVVHCSRETGRLSAIIAPSILASDFAQLLSECQSVLSPEGGAADWLHVDVMDGHFVPNISIGMCVVQSLRSHLQDVFLDVHCMVSDPDRWVEEMAKAGATQMTFHVEAVADPKAVARHIRAAGMLCGVALKPKTPVSSVLNLVEEQLIDMVLVMTVEPGFGGQSFMQDMMPKVEELRARFPCLNIQVDGGIGPGTIDAPARAGANVIVAGTSIFRADSRKEATESMRRVVQGYLGSTTS	soluble
GPGSMVVKDISLADWGRKELDIAETEMPGLMAAREEFGKSQPLKGARISGSLHMTIQTAVLIETLKVLGAEVRWASCNIFSTQDHAAAAIAATGTPVFAVKGETLEEYWTYTDQIFQWPDGEPSNMILDDGGDATMYILIGARAEAGEDVLSNPQSEEEEVLFAQIKKRMAATPGFFTKQRAAIKGVTEETTTGVNRLYQLQKKGLLPFPAINVNDSVTKSKFDNKYGCKESLVDGIRRGTDVMMAGKVAVVCGYGDVGKGSAQSLAGAGARVKVTEVDPICALQAAMDGFEVVTLDDAASTADIVVTTTGNKDVITIDHMRKMKDMCIVGNIGHFDNEIQVAALRNLKWTNVKPQVDLIEFPDGKRLILLSEGRLLNLGNATGHPSFVMSASFTNQVLGQIELFTRTDAYKNEVYVLPKHLDEKVARLHLDKLGAKLTVLSEEQAAYIGVTPQGPFKSEHYRY	soluble
GPGSMWRITRLCCKQLIRDESLVSLPPAVHRLEVYRNAVSVDCEERICAELGLLLQREGHTAFAEGSTPQQKIVKHTYLELHGAHKDFTEVKSFQRKETRRLPGLLWSPTLVSWMNEVVPRVRVFPVGVMPDTARVVEHNMTGYEMHMEHPTVGCSFLYLSLLSDTVLTFDDEATGRYGEVFLPQRALMCCSGEIRWGWRFGEQSREVHTFVNASGVRRVVEPDLRLSVQLWKFTPQLLDARLLQDRVEESMKQREAEESNEVVETIAVDRKKNEEEHKGSASSHALFSALAEKGASGTGPLGGEYVEGRTQACKGVEGKSMTMEDIGRDYNTYKQQFQNVHGVLQEMKALQDAGQPINDMWLRKRILDGQKDDNHDAQDGFDPNDVEGTWDRVDAKARFYKARLKGMDYDGTANSNSSMPDVTEDAPLDMKKTIQKIAPLVKDGDKILASLPCGQ	not soluble
GPGYNEPMAASDEVNLIESRTVVPLNTWVLISNFKVAYNILRRPDGTFNRHLAEYLDRKVTANANPVDGVFSFDVLIDRRINLLSRVYRPAYADQEQPPSILDLEKPVDGDIVPVILFFHGGSFAHSSANSAIYDTLCRRLVGLCKCVVVSVNYRRAPENPYPCAYDDGWIALNWVNSRSWLKSKKDSKVHIFLAGDSSGGNIAHNVALRAGESGIDVLGNILLNPMFGGNERTESEKSLDGKYFVTVRDRDWYWKAFLPEGEDREHPACNPFSPRGKSLEGVSFPKSLVVVAGLDLIRDWQLAYAEGLKKAGQEVKLMHLEKATVGFYLLPNNNHFHNVMDEISAFVNAE	soluble
GPHMASAEEKLEKKLELDPNCKEPLQVLPPTVVDQIRLWQLELDRVITYEGSLYSDFETSQEYNLLSKYAQDIGVLLWKDDKKKKFFISKEGNSQVLDFAKRKLKKKQ	soluble
GPLGSDFPQHSQHVLEQLNQQRQLGLLCDCTFVVDGVHFKAHKAVLAACSEYFKMLFVDQKDVVHLDISNAAGLGQVLEFMYTAKLSLSPENVDDVLAVATFLQMQDIITACHALKSLA	soluble
GPQDPYEINLMEELTLKGVTQYYAYVTERQKVHCLNTLFSRLQINQSIIFCNSSQRVELLAKKISQLGYSCFYIHAKMRQEHRNRVFHDFRNGLCRNLVCTDLFTRGIDIQAVNVVINFDFPKLAETYLHRIGRSGRFGHLGLAINLITYDDRFNLKSIEEQLGTEIKPIPSNIDKSLYVAEYHSEPVEDEKP	soluble
GPVDEVSFHSVVQQLKARQQATDEQLEELQEAFAKVQERNSVFSDWLKISAMLCAATLALSQVVKMAKAVKQMVKPDLVRVQLDEQEQGPYNETARVKPKTLQLLDIQGPNPVMDFEKYVAKHVTAPIGFVYPTGVSTQTCLLVRGRTLVVNRAMAESDWTSIVVRGVTHARSTVKILAIAKAGKETDVSFIRLSSGPLFRDNTSKFVKAGDVLPTGAAPVTGIMNTDIPMMYTGTFLKAGVSVPVETGQTFNHCIHYKANTRKGWSGSALLADLGGSKKILGIHSAGSMGIAAASIVSQEMIRAVVNAFEPQ	soluble
GQDRSPIETQNVETVLRLFDEGWGAQDGWRDVWRETMTPGFRSIFHSNQAVEGIEQAIAFNAVLFEGFPRLEVVVENVTVEGDNVVVQARLTGAQDGPFLGVPPSGQMVDVPDVTLFTLADGQVIEMRYFTDLLAVMTAISAPPEN	soluble
GQHSLQYFHTAVSRPGLGEPWFISVGYVDDTQFVRFDSDAENPRMEPRARWMEQEGPEYWERETQIAKGHEQSFRGSLRTAQSYYNQSKGGSHTLQWMYGCDMGSDGRLLRGYLQFAYEGRDYIALNEDLKTWTAVDMAAQITRRKWEQAGIAEKDQAYLEGTCMQSLRRYLELGKETLLRTDPPKAHVTHHPRSYGAVTLRCWALGFYPADITLTWQLNGEELTQDMELVETRPAGDGTFQKWASVVVPLGKEQNYTCHVNHEGLPEPLTLRW	soluble
GQRELTLFVHGFNSTQTETAYRAAQLAHDIEMPGSLMVYSWPSKGHALGYAYDADSTVFARDGLETVLRRLGEQRIDRLAVVAHSMGSFLLMEALRQIEIATPGWSARHLDGVILISPDLDLDVFRSQMRRIKTVPQPFVVMASEKDNVLNLSRHLRGKQSSERLGQIGSAALITDLPVAVIDTSQFSDEAESGHFIAATSPTLLAMIAEARNMTDLFEAGNVPL	not soluble
GRRPRTAFTQNQIEVLENVFRVNCYPGIDILEDLAQKLNLELDRIQIWFQNRRAKLKRSHRESQFLM	soluble
GSAEEWYFGKITRRESERLLLNPENPRGTFLVRESETTKGAYCLSVSDFDNAKGLNVKHYKIRKLDSGGFYITSRTQFSSLQQLVAYYSKHADGLCHRLTNVCPTSKEFIVTD	soluble
GSAMAPTNDQLTDLQEAHFVVFESEENSESVMDGFVEHPFYTATLNGQKYVVMKTKDDSYWKDLIVEGKRVTTVSKDPKNNSRTLIFPYIPDKAVYNAIVKVVVANIGYEGQYHVRIINQDINTKDDDTSQ	soluble
GSARPKLRVVTLVEHPFVFTRESDEDGQCPAGQLCLDPGTNDSARLDALFAALVNGSVPRTLRRCCYGYCIDLLERLAEDLAFDFELYIVGDGKYGALRDGRWTGLVGDLLAGRAHMAVTSFSINSARSQVVDFTSPFFSTSLGIMVRTRGTELSGIHDPKLHHPSQGFRFGTVWESSAEAYIKASFPEMHAHMRRHSAPTTPHGVAMLTSDPPKLNAFIMDKSLLDYEVSIDADCKLLTVGKPFAIEGYGIGLPQNSPLTSNLSEFISRYKSSGFIDLLHDKWYKMVPCGK	soluble
